Measurements reported in publication PMC5673231.

Target: organic anion transporting polypeptide (OATP) 1B3 (UniProt Q9NPD5)
Sequence of UniProt Q9NPD5 (Q9NPD5 whole entry): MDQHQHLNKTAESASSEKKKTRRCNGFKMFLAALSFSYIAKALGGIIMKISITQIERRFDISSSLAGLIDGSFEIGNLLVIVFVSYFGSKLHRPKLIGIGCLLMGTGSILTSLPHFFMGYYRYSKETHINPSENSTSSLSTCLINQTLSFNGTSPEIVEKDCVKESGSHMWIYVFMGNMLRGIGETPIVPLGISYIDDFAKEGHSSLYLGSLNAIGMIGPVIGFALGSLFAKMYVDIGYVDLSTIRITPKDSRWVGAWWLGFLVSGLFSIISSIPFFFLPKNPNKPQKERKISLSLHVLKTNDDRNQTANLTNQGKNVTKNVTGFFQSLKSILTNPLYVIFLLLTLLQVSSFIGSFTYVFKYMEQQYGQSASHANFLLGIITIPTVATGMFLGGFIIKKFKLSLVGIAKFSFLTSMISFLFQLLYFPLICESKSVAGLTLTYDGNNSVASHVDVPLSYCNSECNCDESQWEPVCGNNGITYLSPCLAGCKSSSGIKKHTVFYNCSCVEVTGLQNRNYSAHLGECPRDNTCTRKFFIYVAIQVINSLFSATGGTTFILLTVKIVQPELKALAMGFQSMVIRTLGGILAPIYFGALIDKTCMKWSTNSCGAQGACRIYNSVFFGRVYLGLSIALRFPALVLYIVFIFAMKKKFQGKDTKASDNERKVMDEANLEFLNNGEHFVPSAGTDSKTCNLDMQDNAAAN

Km (called the affinity constant) of CCK-8 transport, [^3H]CCK-8 accumulation 0.1-40 uM, 3 min, in HEK293-OATP1B3 cells pretreated with bortezomib (50 nM, 7 h), Michaelis-Menten fit: 4.9 µM
Km (called the affinity constant) of CCK-8 transport, [^3H]CCK-8 accumulation 0.1-40 uM, 3 min, in HEK293-OATP1B3 cells pretreated with vehicle control, Michaelis-Menten fit: 5.8 µM
Substance: octapeptide cholecystokinin 8
